Assay: soluble on expression in E. coli; label from the status in PepcDB or PDB records

Sequence | soluble on expression in E. coli
MSLKLKIADIAMRTGLSSSTVSRVLAGKANTSYRAREKVLACARELGVMDGMASGRMLLNNLVIFAPQRAFDERTDIFYFRVIQSISKALSHYEVRLRYCALDEFDSTPSKFLARMNEAETQAAILLGIDDPHIHDLAADFSKPCVMINCHDRRMRLPTVAPDHKNIGAFASHFLFEMGHRRVMNIMCLRRYTMELRLAGIKEAWERQNQNFKDDRDLLTINSFSAKEAEEKVGAWLDMTEKSMLPTAFLASGDFIAAGIINALKKRNIRVPQDVSVMSIDGFNLAAIEDVPLTAVHVPRDELGTEAVHMLQQRLVRPDATVGALLLYGKLVIRESVREGHHHHHH | not soluble
MNFKPIKPKKISTQIAEQIRSSILAGEFTPGEKLPPERELAEMFGVSRPSVREALNILAAAGLVESYQGGGTIVKSLMDAASGPPLSEIIKVEQERALDVIEVRKCMEAWTAYYAAQRALPDDVRKLEGIVWNMEANLNGLKPSEDLDANFHIVIARSTHNVVWLHLMQTIFEAMKEFQRSVWRAVYLTEEDHRTLFAHHKAIFEAIRDKDCERARNAMLGHLTFAEKRSSIYVNQSRQDR | not soluble
MQTLTVVGLGRLGRSLGRLAADSGAYRLLDLMGRRAQPLAEGRDFVGAGRPVSEMRQLAPADLYLLAVPDAAIASCARGLAAAGVAPAGSVVFHASGVGDASLLRPLAEQGVLTASLHPAFSFADPKRAVEGFAGTLCALEGDEQACLRLEAFARALGGRPFRLAPGGKAAYHAGLSVASNFLVALTAMAGQLTARAGVPPELARQLLGGLMRQTLDNALELGPYDALTGPILRGDIGTVERHLEVLADTGLISAYRTLGRQVVELAGERLQEPARQQLLALLYLEHHHHHH | soluble
MQTEHVILLNAQGVPTGTLEKYAAHTADTRLHLAFSSWLFNAKGQLLVTRRALSKKAWPGVWTNSVCGHPQLGESNEDAVIRRCRYELGVEITPPESIYPDFRARATDPSGIVENEVCPVFAARTTSALQINDDEVMDYQWCDLADVLHGIDATPWAFSPWMVMQATNREARKRLSAFTQLKLEHHHHHH | soluble
GPGSMFVEDKGLISEANLRALHVGTLKLHLFLQEWILPVSFSEKYGYKKEVLEEIIERYGSGSAAEARWTFEQLLGECEVPGQISWLEEHISEDIPYFYIADLFDSWCNLHRNLFVCSADAHETAKRSDDRFESELLCKGVIEKAISGVLPYDTAVRALCILAIGCRTNTQFMLKTIKPDFIINRYKLYTDDLAQPIDGNTDVTPLAEVNAATIGLLNALNTELQEQEKLKLWKSSTARKLPLLMQLNATPWCDSVDSLRRGLKGITSNNAATLLEEATQYFRCSELSK | not soluble
GSHMASPTPAPSQSPIRRDAFSIIEAEEYNSTNSSTLQVIGTPNNGRGIGYIENGNTVTYSNIDFGSGATGFSATVATEVNTSIQIRSDSPTGTLLGTLYVSSTGSWNTYNTVSTNISKITGVHDIVLVFSGPVNVDNFIFSRSS | soluble
MGSDKIHHHHHHMTGNDWIGSALHNSITCMGHSAAALAAPFAQASRRLIATLQAGGQVLSCGNGGSSGDAQHLASELVNRFETTRRALPAIALSTDSSVVTAIANDVCYEQIFARQIEALGRPGDCLVAFSTSGNSTNVIAAARTAQQRGMWVLALTGKEGGQLALLLRPVDIELRVPEQNTARIQEVHLVLIHALCSGVDASFVGDAPASVFHTGQVLRDWEALDEACTFRRPLVFTNGVFDVLHRGHVQYLAEARAEGACLVVGVNSDASVRRLGKGADRPVNSEEDRMAVLAGLQAVDFVTVFDDDTPLKLIQHLQPDVLIKGGDWPIERIVGADWVQAGGGRVLSIPFRHERSTTALLQKIRGSQP | not soluble
MGNCESRELVAQAKQNKIINTELDKAKKTDENIIKLLLLGAGESGKSTVLKQMKIIHNSGFSQEEISNKRNVVCANTVQAMGALLDGMKQLQFDFSTRVCNAHEKLIRETLNDKAEYGPFSDAMFNALTELWADKGVQCAYDKREFFYLHDSAKYFFDAIARVHTPNYVPTENDILHTRVPTMGVIEVNFTIKGKFFRVFDVGGQRSQRKKWIHCFDDAKAMIYVASLSEYDQVLLEDNTTNRMHESIQLFKQVINNKYFVNTSVILFLNKIDLFEEKIVTKKRSLGIAFESFSGPSQDLNAAVAFVEKKYRSMAENKEKNIYCHHTCATDTQQVQYVLDAVLDTILSTKLKGCGLY | not soluble
SNAMKDKIIDNAITLFSEKGYDGTTLDDIAKSVNIKKASLYYHFDSKKSIYEQSVKCCFDYLNNIIMMNQNKSNYSIDALYQFLFEFIFDIEERYIRMYVQLSNTPEEFSGNIYGQIQDLNQSLSKEIAKFYDESKIKMTKEDFQNLILLFLESWYLKASFSQKFGAVEESKSQFKDEVYSLLNIFLKK | soluble
MSLANNKVHFIAIGGAVMHNLALALHHKGYLVSGSDDEIFEPSRTRLAAYNLLPAEMGWFPEKITTDLDAVILGMHARNDNPELQKARELGIKIYSFPEYIYEQSKDKQRIVIAGSHGKTTITAMIMHVLKTHKRKFDYLVGAKLDGFETMVQITDDAPIIIIEGDEYLTSPLDLTPKFLHYHHHIGLISGVAWDHINVYPTFEEYVKQFDAFADSTPKGGILIYSESDDLATLVADKPRPDVQAIGYSAPKHEIVNGITYLLTDKGKIELEVFGKHNLKNINAAKNVCLKIGITEAMFYDAIKTFKGAANRLEILGRGKHNVVFKDFAHAPSKLKATSKAVKKQFSDRKLIAVLELHTFSSLNKEFLSQYKDTYKAPDEPIVYFNPETVKHKRLEEITEADIIEAFDNPKLNVFTDSKKLEEFLFSHDWKHSNLLLMSSGNFGGIDLKKLTSHVLNQHAEGHHHHHH | soluble
QAKQTMQTLSTLNELGSKVEEVRNFFNFELPYRVKHVDQVSLKLQLVYAVRLQLESEVSDANGPDVTQLLYSTDRFLESARAFIGSDGELVSLAEQLHTSRGAENNSQQIENMYYRLGALVLESIFSDSNTNTDTYRELDLLFIESDSLSTGERSAFQRRLAQTSSVLAANAQGSYLANQLLKPDFPNQLVSMKATLEQK | not soluble
PHDDSYWDRVLTHGKNCIKYTPNNAASLHNAIRLLNESPWMKVTMGLEALNVAQLYSAERCYMPIAQYLCSEHAPTSHHGAKARNNVKGYDHV | not soluble
MQENPTVWLFDLDNTLHDADAGIFHLINRAMTRYMARRLKLSESAASDLRQDYWHRYGATLAGLQIHHPEIDIAEFLRESHPIDAILTRLHGMADTENTLCRLNGRKAVFSNGPSFYVRAVAGALGLENCFDALFGTDDFGLLYKPNPQAYLNVCRLLDVPPECCIMVDDSADNLHQAKALGMKTVRFGAKSHAPPFIDASVSDMAQLARYAETLSERRQNHYNTRTPRKYERMLCVKPSLS | not soluble
MPAGLVISAPASGVGKTTLTLALARAWRNRGLSVQCFKSGPDYIDPAFHAAATGRASVNVDSWAMDRGGIAHLVGRGADADVVLAEGSMGLFDGVAARGVSGTGATADIAEMLGWPVLLVIDPSGQAQTAAAIAAGLRDYRPGVRLAGVVLNRVASPRHEDLVRRALDDAGIAVFGALPRHAEISLPKRHLGLVQAEEQAEIGKLIDEAARFVAEHVDLDAVLQSAAAWAPQPAANGLNVTPPGQRIALARDAAFSFVYPHMLEAWRAAGADISTFSPLADEAPDASADVCWLPGGYPELHAGKIAANARFCSGLRAFAETRPVHGECGGYMVLGTALTDADGVRHEMAGLLGLETSFAKRRMHLGYRLAELAAPMPGHSPGARLRGHEFHYSTIAAQPDMPLAVVHDATGAVIAETGSRRGNATGTFFHLIAEDRLEHHHHHH | soluble
EAYIGVLIDDLVTKGTNEPYRLLTSRAEYRLLLRHDNADLRLTEKGYEIGLIARERYERFCEKKAQIAAEKKRLESITVKPSKEVNALLEEVGSAPLKEAVQANVFLKRPEVTYEHVAKVIPAPEQELSADVAEQVEIQIKYEGYISKMLQQVERAKKMNDKKIPEDLDYDAINGLATEAKQKLSEVRPLSVGQASRVSGVNPSDISILLVYLE | not soluble
